# Assay results: the nanobody polyreactivity screen of Harvey et al. (2022)
# Assay: yeast display, Sf9 membrane polyspecificity reagent, FACS + sequencing; frameworks hold sequencing errors
# Method in brief: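 In a synthetic yeast display library (Saccharomyces cerevisiae BJ5465), nanobody expression was induced with galactose for 36–48 hours. FACS gates were set low and high (top ~1%) using anti-HA fluorescence for expression and streptavidin fluorescence for binding of the Sf9 membrane reagent. Each polyreactivity label is drawn from the gate of origin.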
row,Sequence,polyreactivity (PSR sort gate)
1,QVQLVESGGGLVQAGGSLRLSGAAKGSTFRQYAMGWYRQATGKERELVAAISSGGRTNYPDSVKGRFTISRDNAKNTVYFHMNSQKPVDTAVYYSAARFYFQFRRFRRMDYWGQGTQVTVSS,high polyreactivity
2,QVQLVESGGGLVQAGGSLRLSCAASGSIFGYYVMGWYRQAPGKERELVAAITKSGGSTYYADSVKGRFTISRDNAKNTVYLQKNSLKPEDTAVYYCAKRFYSTGYGRFDYWGQGTQVTVSS,high polyreactivity
3,QVQLEESGGGLVQAGGSLRLSCAASGSTFANYAMGWYRQAPRKERELVAGISWRGGRTYYADSVMGRFTISRDNGKNTVYLQINILKPEDTAVYYCAVVHQTFTGDYWGQGTQVTVSS,high polyreactivity
4,QVQLVESGGGLVQAGGSLRISCAASGSTFYLYDMGWYRQAPGKERELVANITSGTSTTYADSVKVRFTISRDNAKNTVYLQMNSLKPEDTAVYYCNATYTSPEYDYWGQGTQVTVSS,low polyreactivity
5,QVQLGDSGGGLVQAGGSLRLSCAASGRIFYGNAMGWYRQAPWKERELVAAISSGGGSTYYADSVKGRFTISRDNAKNTVYLQMNSLKPEDNAVYYCAADPVPRFPGTGGYWGQGTQVTVSS,low polyreactivity
6,QVQLVESGGGLVQAGGSLRLSCAASGLTFPHNAMGWYRQAPGKERELVAAITSSGGSTYYADSVKGRFTISRDNAKNTVYIQMNSLKPEDTAVYYCAAKRKPRPSYRYGYWGQGTQVTVSS,high polyreactivity
7,QVQLVESGGGLVQAGGSLRLSSAASGSIFRWNAMGWYRQAPGKERELVAVITWRGGRTYYADSVKGRFTISRDNAKNTVYLQMNSLKPEDTAVYYCGKGRLVTTLFGHYATFEYDSWGQGTQVTVSS,high polyreactivity
8,QDQLVESGGGLVQAGGSLRLSCAASGSIIGWYAMGWYRQARGKERELVAAITFSSVSTYYADSVKGRFTISRDNAKNTVYLQMNSLKPEDTAVYYCAAVVYYTFDYCGQGTQVTVSS,low polyreactivity
9,QVQLVESGGGLVQAGGSLRLSCAASGSIFTINAMGWYRQAPGKERELVAAISFSGGRTYYADSVKGRFTISRDNAKNTVYLQMNSLKPEDTAVYYCAAPFYYYGVRFDYWGQGTQVTVSS,high polyreactivity
10,QVQLVESGGGLVQAGGSLRLSCAASGRIFGKYAMGWYRQAPGKERELVAAISRSGASTYYADSVKGRFTISRDNAKNTVYLQMNSLKPEDTAVYYCAAVPPYNYRVRVYYWGQGTQVTVSS,high polyreactivity
11,QVQLVESGGGLVQAGGSLRLSCAASGSIFSGYAMGWYRQAPGKERELVAALTRSGGRTYYADSVKGRFTISRDNAKNTVYLQMNSLKPEDTSVYYCATLPRYYGYWGQGTQVTVSS,high polyreactivity
12,QVQLVESGGGLVQAGGSLRLSGAASGSIFRDNGMGWYRPAPGKERELVAAINSGDSTYYADSVKGRFTISRDNAKNTVYLQLNSLKPEDTAVYYCNADDRRALSQRQYDWYDYWGQGTQVTVSS,low polyreactivity
13,QVQLQESGGGLVQAGGSLRLSCAASGNIFDADIMGWYRQAPGKERELVASITDGGSTNYADSVKGRFTISRDNAKNTLYLQLISLYPDDTGVYYCAAIAYPDIPTYFDYDSDYFYWGQGTQVTVSS,high polyreactivity
14,QVQLVESGGGLVQAGGRLRLSCAASGFIHYAMGWYRQAPGNERELVAAIRHSGGSTYYADSVKGRFTISRDNANNTVYIHMNSLKPEDTAVYYCAASRSGVGYRMQYWGQGTQVTVSS,low polyreactivity
15,QVHLVESGGGLVQAGGSLRLSCAAYGSTFTWYARGWYRQAPGKERELVADISYGGGSTYYADSVKGRFTISRDNAKNTVYLQMNSLKPEDTAVYYCAAESIPYYRYDYWGQGSQVTVSS,low polyreactivity
16,QVHLVESGGGLVQAGGSLRLSCAASGNTFYKYTMGWYRQAPGKERELVAVISSSSGSTYYADSVKGRFTISRDNAMNTVYLQMNSLKPEDTAVDYCNKRGWWDLRHDYWGQGTQVTVSS,low polyreactivity
17,QVQLVESGGGLVQAGGSLRLSCAASGIIFTYYAMGWYRPAPGKERELVAAISSGGGSTYYADSVKGRFTISRDNAKITVYLQMNSLKPEDTAVYYCNADYYFVYTYLHDYWGQGTQVTVSS,low polyreactivity
18,QVQLVESGGGLVQAGGSLRLSCAASGFTFLSNAMGWYRQAPVKERELVAGISWDAGSTNYADSVKGRVTISRDNAKNTVYLQMNSLKPEDTAVYYCNADDSTGSRFYIEYDYWGQGTQVTVSS,low polyreactivity
19,QVQLEESGGGLVQAGGSLRLSCAASGLTFSRYAMGSYRQATGKERELVAAISIRGGNTYYADSVKGRFTISRDNAKNTVYLQMNSLKPEDTAVYYCNAVVYHYTLDHEYDYWGQGTQVTVSS,high polyreactivity
20,QVQLVQSGGGLVQAVGSLRLSCAASGRTFPYYTMGWYRQARGKERELVAAINSSGGRTYYADSVKGRFTISRDNAKNTVYLQMNSLKPEDTAVYYCAKRGYYKYDWGQGTQVTVSS,high polyreactivity
21,QVQIVESGGGLVQAGGSLRLSCSASGNIFYKYAMGWFRQAPGKERELVAAITWRVVRTYYADSVKGRFTISRDNAKNTVYLQMNSLKPEDTAVYYCAALSRQSGDYWGQGTQLTVSS,high polyreactivity
22,QVQLVESGGGLVQAGGSLRLSCAASGFIFRLYTMGGYRQAPGKERELVAAISWSGGRTYYADSVKGRFTISRDNAKNTVYLQMNSLKPEDTAVYYCAKDLYLHTYYAYPYRFGSGYYWGQGTQVTVSS,low polyreactivity

row,Sequence,polyreactivity (PSR sort gate)
1,QVQLVESGGGLVQAGGSLRLSCAASGSTFYYYTMGWYRQAPGKEREFVADITNRGGSTYYADSVKGRFTISRDNAKNTVYLQMNSLKPEDTAVYYCAARFSPWYWAGDYDYWGQGTQVTVSS,high polyreactivity
2,QVQLVESGGGLVQAGGSLRLSCAASGRILYYNDMGWYRQAPGKERELVAAIDRGGSTSYADSVKGRFTISRDNAMNTVYLQMNSLKQEDTAVYYCAVARGGRRKYEYWGQGTQVTVSS,low polyreactivity
3,QVQLVESGGGLVQAGGSLRLSCAASGGMGWYRQAPGKERELVATISSVGSTNYADSVKGRFTISRDNAKNTVYLQMNSLKPEDTAVYYCNATGVQYFLYGYWGQGTQVTVSS,low polyreactivity
4,QLQLVESGGGIVQAGGSLRLSCAASGSIFPYNAMGWYRQAPGKEREFVAAINLSGGSTNYADSVKGRFTISRDNANYTFYLQMNSLKPEDTAVYYCNAPVVYFLPLNFDYWGQGTKVTVSS,low polyreactivity
5,QVQLVESGGGLVQAGGSLRISCAASGTNNRTYAMGWYRQSTGKERDLVAAISKRGGSTYYADSVKGRFTISRDKAKNTVYLQMNSLKPEDTEVYYCAKKSTPGYGTSNDSWVQGTQVTVSS,high polyreactivity
6,QDQLVESGGGLVQARGPLRLSCSASGFNFSNYAMGWYRHAPGKERELVAAISFTGSNTYYADSVKGRFTISRDNAKNTVYLQMNSLKPEDTAVYYWNDPLVWGVYAAQNWDEGYWGQGTQVTVSS,low polyreactivity
7,QVQLVESGGGLVQAGGSLRLTCAATGRTFYNGMGWYRQAPGKERELVAAISRGGSTYYADSVKGRFTISRDNAKNTFYLQMTSLKPEDTAVYYCAIDQSRYVYVTLRGGYWGLGTQVTVSS,low polyreactivity
8,QVQLVESGGGLVQAGGSLRLSCAASGRIFVGYAMGWYRQAPGKERELVAAINRSGSSKYYADSVKGRFTISRDNAKNTVYLQMNSLKTEDTAVYYCNARSGNRYGPRYDYWGQGTQVTVSS,high polyreactivity
9,QVQLVESGGGLVQAGGSLRLSCAASGLTFRSYAMGWYRPAPGKEREFVAAITGSGDTTYYADSVKGRFTISRDNAKNTVYLQMNSLKPEDTAVYYCNADRDYLWITLYEYWGQGTQVTVSS,high polyreactivity
10,QVQLVESGGGLVQAGGSLRISCAASGSIFDYYVMGWYRQATGKERELVAAISWSGASTYYADSVKGRCTISRDNAKNTVYLQMNSLKREDTAVYYCAAYYGVNNLIDYDYWGQGTQVTVSS,low polyreactivity
11,QVQLVESGGGIVQAGGSHRLSCAASGRTFYRYAMGWYRQAPGTERELVAAITRRSGNTYYADSVKGRFTISRDNAKNNVYLQMISLKPEDTAVYYCAADPETWSPHYESLGYYWGQGTQVTVSS,high polyreactivity
12,QVQLVESGGGLVQAGGSLRLSCAASGSTFYSYAMGWYRQAPGKERELVAAISWRGGSTYYADSVKGRFTISRDNAKNTVYLQMNSLKPEDPEVYYCAAYRGDGYEYWGQGTQVTVSS,high polyreactivity
13,QVQLVESGVGIVQAGGSLRLSCAASGRIFFTYAMVWYRQAPGKERELVASITGSGGSTYYADSVKGRFTISRDNAKNTVYLQMNSLKPEDTAVYYCAAALFRRQLYRKFYYWGQGTQVSVSS,low polyreactivity
14,QVQLVESGGGLVQAGGSLRLSCAASGFIFNIYAMGWYRQAPGKERELVAAITDDGSTNYADSVKGRFTISRDNAKNTVYLQMNSLKPEDTAVYYCAADDYYKFDYWGQGTQVTVSS,low polyreactivity
15,QVQLVESGGGVVQAGGSLRISCAASGSTFVRYAMGWYRQAPGKERELVASISSSGSTYYADSVKGRFTISRDYAKNTVNVELNCLNPEDNAVYYCAKQYGGRYGYWGQGSQVTVSS,low polyreactivity
16,QVQLVESGGGLVQAGGSLRLSCAASGLTISWYAMGWYRQAPGKEWELVAAISTRGGRTYYADSVKGRFTISRDNAKNTVYLQMNSRKQEDNAVYYCAAGVYYRYLWLFDYWGQGTQVTVSS,high polyreactivity
17,QVQLVESGGGLVQAGGSLRLSCAASGFIFGPYAMGWYRQAPGKERELVASISWSGGRTYYADSVKGRFTISRDNAKNTVYLQMNSLKPEDTAVYYCAADLPVIRGYRSNRFGYWGQGTQVTVSS,high polyreactivity
18,QVQLVESGGGLVQAGGSLRISCAASGLTFDYNAMGWYTQAPGKERELVAAITSGGSTKYADSVKGRFTISRDNSKNTVYLQMNSLKPEDTAVYYCARDRPGDYAGYDYWGQGTQVTVSS,low polyreactivity
19,QVQLVESGAGLVQAGGSLRLSSAASGSIFEPNAMGWYRQAPGKERELVAAITSGGTTYADSVKGRFTISRDNAKNSVYFQMNSLKPEDSAVYYCAAYYIFVYYYPFDYWGQGTQVTVSS,low polyreactivity
20,QVQLVESGGGLVQAGGSLRLSCAASGRTFLYYTMGWYRQAPGKERELVAAINWSGGRTYYADSVKGRFTISRDNAKNTVYLQMNSLKPEDTAVYYCNADSRYRYDYWGQGTQVTVSS,low polyreactivity
21,QVQLVESGGGIVQAGGSLRLSCAASGSTYNLNALGWSRQAPGKERELVAAIDSGGRTNYADSVKGRFTISRDNAKNTVYVQMNSLKPEDTAVYYCAADVYAYPGSWYDYWGQGTQVTVSS,low polyreactivity
